B1: Gibberellin receptor GID1 (Oryza sativa subsp. japonica (Rice)), Q6L545 (parent)
chain: MAGSDEVNRNECKTVVPLHTWVLISNFKLSYNILRRADGTFERDLGEYLDRRVPANARPLEGVSSFDHIIDQSVGLEVRIYRAAAEGDAEEGAAAVTRPILEFLTDAPAAEPFPVIIFFHGGSFVHSSASSTIYDSLCRRFVKLSKGVVVSVNYRRAPEHRYPCAYDDGWTALKWVMSQPFMRSGGDAQARVFLSGDSSGGNIAHHVAVRAADEGVKVCGNILLNAMFGGTERTESERRLDGKYFVTLQDRDWYWKAYLPEDADRDHPACNPFGPNGRRLGGLPFAKSLIIVSGLDLTCDRQLAYADALREDGHHVKVVQCENATVGFYLLPNTVHYHEVMEEISDFLNANLYY
partner: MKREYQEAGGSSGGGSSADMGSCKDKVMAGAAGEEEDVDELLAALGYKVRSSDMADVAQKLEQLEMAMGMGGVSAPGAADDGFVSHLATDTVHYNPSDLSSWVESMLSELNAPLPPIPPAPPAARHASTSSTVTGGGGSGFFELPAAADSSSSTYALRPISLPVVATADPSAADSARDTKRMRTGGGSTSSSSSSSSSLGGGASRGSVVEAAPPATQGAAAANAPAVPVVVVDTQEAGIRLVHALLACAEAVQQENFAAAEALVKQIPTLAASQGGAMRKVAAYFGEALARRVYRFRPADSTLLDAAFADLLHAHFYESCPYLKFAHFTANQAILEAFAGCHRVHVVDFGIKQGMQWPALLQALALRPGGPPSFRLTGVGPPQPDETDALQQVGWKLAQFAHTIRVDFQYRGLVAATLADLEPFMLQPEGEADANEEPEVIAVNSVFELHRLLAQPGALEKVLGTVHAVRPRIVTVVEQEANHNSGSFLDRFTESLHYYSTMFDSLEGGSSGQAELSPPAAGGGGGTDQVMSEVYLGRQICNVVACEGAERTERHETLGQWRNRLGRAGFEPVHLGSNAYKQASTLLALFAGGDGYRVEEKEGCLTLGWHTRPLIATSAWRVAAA

Variants of: B1
Details: with slr1_orysj SLR1, Q7G7J6

Row | effect of a mutation on the interaction | Variant
1 | disrupting interaction | L18A;W21A;L29A;I33A;L45A;Y48A
